Here are results for three molecules from article PMC2877795, “Laminin chain assembly is regulated by specific coiled-coil interactions” (Journal of Structural Biology, 2010).

What all share (conditions): both partners purified
For assay [1], the target named is T1, recombinant mouse laminin γ2 chain C-terminal coiled-coil fragment (949–1191) (mouse, UniProt Q61092 949-1191).
T1 construct: two residues (GlySer) left from the protease recognition site after thrombin cleavage; laminin γ2 chain, mouse, C-terminal coiled-coil fragment, residues 949-1191 of the native chain (243 residues); source: E. coli JM109(DE3), purified (Ni2+-Sepharose, denaturing, 8 M urea), 6xHis tag removed by thrombin; not shown: 6xHis, N-terminal, cleaved; pPEP-T leader (short C-terminal fragment of the …)
T1 sequence: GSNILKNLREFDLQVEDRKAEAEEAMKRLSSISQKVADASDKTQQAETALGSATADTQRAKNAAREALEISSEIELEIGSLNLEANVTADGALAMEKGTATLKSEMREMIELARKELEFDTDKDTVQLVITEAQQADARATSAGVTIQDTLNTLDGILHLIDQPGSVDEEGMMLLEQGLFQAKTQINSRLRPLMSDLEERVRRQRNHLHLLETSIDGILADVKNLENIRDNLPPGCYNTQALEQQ
In words: native gel or EMSA; mixtures of one β and one γ chain fragment; 10% non-denaturing PAGE (acid gels for basic complexes); mixtures reduced, heated to 70 °C for 5 min and cooled; run overnight at 50 V; Coomassie; bands confirmed by in-gel trypsin digestion and mass spectrometry.

The target of assay [2] is T2, recombinant mouse laminin γ1 chain C-terminal coiled-coil fragment (1362–1607) (mouse, UniProt P02468 1362-1607).
T2 construct: two residues (GlySer) left from the protease recognition site after thrombin cleavage; laminin γ1 chain, mouse, C-terminal coiled-coil fragment, residues 1362-1607 of the native chain (246 residues); source: E. coli JM109(DE3), purified (Ni2+-Sepharose, denaturing, 8 M urea), 6xHis tag removed by thrombin; not shown: 6xHis, N-terminal, cleaved; pPEP-T leader (short C-terminal fragment of the …)
T2 sequence: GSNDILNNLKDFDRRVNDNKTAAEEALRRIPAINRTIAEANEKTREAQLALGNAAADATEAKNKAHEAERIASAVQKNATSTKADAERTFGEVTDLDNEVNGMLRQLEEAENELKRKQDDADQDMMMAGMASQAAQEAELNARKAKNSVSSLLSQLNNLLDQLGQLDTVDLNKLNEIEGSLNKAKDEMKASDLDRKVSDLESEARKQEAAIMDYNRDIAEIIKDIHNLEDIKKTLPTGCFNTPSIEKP
Described as above.

Assay [3] concerns the target T3, recombinant mouse laminin γ3 chain C-terminal coiled-coil fragment (1344–1581) (mouse, UniProt Q9R0B6 1344-1581).
T3 construct: two residues (GlySer) left from the protease recognition site after thrombin cleavage; laminin γ3 chain, mouse, C-terminal coiled-coil fragment, residues 1344-1581 of the native chain (238 residues); source: E. coli JM109(DE3), purified (Ni2+-Sepharose, denaturing, 8 M urea), 6xHis tag removed by thrombin; not shown: 6xHis, N-terminal, cleaved
T3 sequence: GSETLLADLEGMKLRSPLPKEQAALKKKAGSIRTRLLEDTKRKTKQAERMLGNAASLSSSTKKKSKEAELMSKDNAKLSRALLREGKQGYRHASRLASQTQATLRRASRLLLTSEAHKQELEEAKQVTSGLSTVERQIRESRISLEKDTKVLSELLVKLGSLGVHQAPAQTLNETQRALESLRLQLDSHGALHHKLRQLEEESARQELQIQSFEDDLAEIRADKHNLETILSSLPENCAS
Described as above.

The target in assay [4] is T4, β1γ1 complex of the recombinant mouse laminin coiled-coil fragments (mouse, UniProt P02469 1561-1786; P02468 1362-1607).
T4 construct: two residues (GlySer) left from the protease recognition site after thrombin cleavage; laminin β1 chain, mouse, residues 1561-1786 of the native chain; as m6; laminin γ1 chain, mouse, residues 1362-1607 of the native chain; as m9; heterodimer by AUC; in the αβγ tests all three chains were mixed, the βγ complex was not isolated beforehand; source: mixture of the purified E. coli fragments; not …
T4 sequence 1: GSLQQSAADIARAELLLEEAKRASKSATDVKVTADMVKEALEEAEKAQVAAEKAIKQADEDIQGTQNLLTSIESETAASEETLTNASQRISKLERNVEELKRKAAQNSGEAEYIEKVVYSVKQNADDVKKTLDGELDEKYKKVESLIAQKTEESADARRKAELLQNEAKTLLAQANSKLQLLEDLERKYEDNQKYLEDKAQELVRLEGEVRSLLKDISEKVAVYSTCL
T4 sequence 2: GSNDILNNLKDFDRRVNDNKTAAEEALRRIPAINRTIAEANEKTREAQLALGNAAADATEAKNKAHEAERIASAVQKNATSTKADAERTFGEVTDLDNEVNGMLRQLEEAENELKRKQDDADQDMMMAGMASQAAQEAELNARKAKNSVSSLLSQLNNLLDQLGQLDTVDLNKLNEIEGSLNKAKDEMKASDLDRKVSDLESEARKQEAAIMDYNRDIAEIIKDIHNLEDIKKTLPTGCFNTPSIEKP
In words: native gel or EMSA; mixtures of one α, one β and one γ chain fragment; 10% non-denaturing PAGE (acid gels for basic complexes); mixtures reduced, heated to 70 °C for 5 min and cooled; run overnight at 50 V, room temperature, no cooling; Coomassie; bands confirmed by in-gel trypsin digestion and mass spectrometry. (In general: Mobility shift assays separate free from complexed probe on a gel.)

Assay [5] has as its target T5, β2γ1 complex of the recombinant mouse laminin coiled-coil fragments (mouse, UniProt Q61292 1575-1799; P02468 1362-1607).
T5 construct: two residues (GlySer) left from the protease recognition site after thrombin cleavage; laminin β2 chain, mouse, residues 1575-1799 of the native chain; as m7; laminin γ1 chain, mouse, residues 1362-1607 of the native chain; as m9; in the αβγ tests all three chains were mixed, the βγ complex was not isolated beforehand; source: mixture of the purified E. coli fragments; not shown: 6xHis, …
T5 sequence 1: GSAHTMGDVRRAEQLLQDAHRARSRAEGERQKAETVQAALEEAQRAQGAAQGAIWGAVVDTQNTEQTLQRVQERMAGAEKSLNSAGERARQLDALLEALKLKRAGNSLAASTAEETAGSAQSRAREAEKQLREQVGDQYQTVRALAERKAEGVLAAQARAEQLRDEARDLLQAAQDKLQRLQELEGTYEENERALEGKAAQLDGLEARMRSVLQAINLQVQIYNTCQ
T5 sequence 2: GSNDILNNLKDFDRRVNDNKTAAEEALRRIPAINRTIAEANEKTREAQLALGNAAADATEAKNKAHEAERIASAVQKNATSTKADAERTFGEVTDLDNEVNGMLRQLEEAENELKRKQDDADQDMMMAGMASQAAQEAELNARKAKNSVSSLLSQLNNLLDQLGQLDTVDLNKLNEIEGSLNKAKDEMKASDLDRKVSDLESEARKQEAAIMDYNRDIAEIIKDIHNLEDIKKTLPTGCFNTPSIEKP
The assay is described as above.

Assay [6] has as its target T6, β2γ3 complex of the recombinant mouse laminin coiled-coil fragments (mouse, UniProt Q61292 1575-1799; Q9R0B6 1344-1581).
T6 construct: two residues (GlySer) left from the protease recognition site after thrombin cleavage; laminin β2 chain, mouse, residues 1575-1799 of the native chain; as m7; laminin γ3 chain, mouse, residues 1344-1581 of the native chain; as m11; in the αβγ tests all three chains were mixed, the βγ complex was not isolated beforehand; source: mixture of the purified E. coli fragments; not shown: 6xHis, …
T6 sequence 1: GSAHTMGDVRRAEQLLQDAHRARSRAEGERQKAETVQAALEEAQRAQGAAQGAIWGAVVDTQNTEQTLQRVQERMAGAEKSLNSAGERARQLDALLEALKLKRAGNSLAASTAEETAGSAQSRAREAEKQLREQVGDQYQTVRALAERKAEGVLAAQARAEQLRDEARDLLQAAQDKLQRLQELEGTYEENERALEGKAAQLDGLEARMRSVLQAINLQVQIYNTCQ
T6 sequence 2: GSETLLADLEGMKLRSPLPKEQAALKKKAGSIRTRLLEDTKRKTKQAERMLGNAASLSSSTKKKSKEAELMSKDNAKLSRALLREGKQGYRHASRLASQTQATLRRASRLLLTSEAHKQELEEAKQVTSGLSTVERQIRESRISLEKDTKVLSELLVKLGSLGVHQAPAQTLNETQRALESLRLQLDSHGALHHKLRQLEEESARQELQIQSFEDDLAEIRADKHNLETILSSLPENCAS
Described as above.

The target of assay [7] is T7, β2γ2 complex of the recombinant mouse laminin coiled-coil fragments (mouse, UniProt Q61292 1575-1799; Q61092 949-1191).
T7 construct: two residues (GlySer) left from the protease recognition site after thrombin cleavage; laminin β2 chain, mouse, residues 1575-1799 of the native chain; as m7; laminin γ2 chain, mouse, residues 949-1191 of the native chain; as m10; in the αβγ tests all three chains were mixed, the βγ complex was not isolated beforehand; also called β2γ2 dimer; source: mixture of the purified E. coli fragments; not …
T7 sequence 1: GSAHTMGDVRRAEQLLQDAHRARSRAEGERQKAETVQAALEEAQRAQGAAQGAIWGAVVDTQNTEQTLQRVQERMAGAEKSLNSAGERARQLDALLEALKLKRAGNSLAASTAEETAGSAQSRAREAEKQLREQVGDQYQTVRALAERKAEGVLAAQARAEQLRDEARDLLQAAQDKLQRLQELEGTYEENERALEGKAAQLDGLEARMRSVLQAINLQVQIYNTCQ
T7 sequence 2: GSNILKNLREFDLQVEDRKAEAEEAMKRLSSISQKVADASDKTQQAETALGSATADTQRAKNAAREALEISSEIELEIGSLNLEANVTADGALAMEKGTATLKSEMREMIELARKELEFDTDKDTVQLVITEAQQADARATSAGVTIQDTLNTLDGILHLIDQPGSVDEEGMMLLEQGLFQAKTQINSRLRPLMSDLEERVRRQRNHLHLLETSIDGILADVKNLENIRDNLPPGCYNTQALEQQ
Described as above.

B1: recombinant mouse laminin β3 chain C-terminal coiled-coil fragment (945–1168) (domain or fragment)
chain: GSLSQTKQDIARARRLQAEAEQARSRAHAVEGQVDDVVGNLRQGTVALQEAQDTMQGTGRSLRLIQERVGEVQQVLVPAERLVKGMKEQMSGFWARMKELRRQAQEEQAQAMQARQLAEGASQQAMNAQEGFKRLKQKYTELKDRLGQSPVLGEQGNRILSIKMEAEELFGETMEMMDKMKDMESELLRGSQAIMLRSADLSGLEKRVEQIRSYINGRVLYYATCK
notes: two residues (GlySer) left from the protease recognition site after thrombin cleavage; laminin β3 chain, mouse, C-terminal coiled-coil fragment, residues 945-1168 of the native chain (224 residues); source: E. coli JM109(DE3), purified (Ni2+-Sepharose, denaturing, 8 M urea), 6xHis tag removed by thrombin; not shown: 6xHis, N-terminal, cleaved
Turning to B1, in assay [1], the binding result is “binds”.

B2: recombinant mouse laminin β2 chain C-terminal coiled-coil fragment (1575–1799) (domain or fragment)
chain: GSAHTMGDVRRAEQLLQDAHRARSRAEGERQKAETVQAALEEAQRAQGAAQGAIWGAVVDTQNTEQTLQRVQERMAGAEKSLNSAGERARQLDALLEALKLKRAGNSLAASTAEETAGSAQSRAREAEKQLREQVGDQYQTVRALAERKAEGVLAAQARAEQLRDEARDLLQAAQDKLQRLQELEGTYEENERALEGKAAQLDGLEARMRSVLQAINLQVQIYNTCQ
notes: two residues (GlySer) left from the protease recognition site after thrombin cleavage; laminin β2 chain, mouse, C-terminal coiled-coil fragment, residues 1575-1799 of the native chain (225 residues); source: E. coli JM109(DE3), purified (Ni2+-Sepharose, denaturing, 8 M urea), 6xHis tag removed by thrombin; not shown: 6xHis, N-terminal, cleaved
Regarding B2, the binding result in assay [2], in assay [3] and in assay [1] was “binds” throughout.

B3: recombinant mouse laminin α4 chain C-terminal coiled-coil fragment (616–842) (domain or fragment)
chain: GSASNVYENIANYVSEANETAELALNITDRIYDAVSGIDTQIIYHKDESDNLLNQARELQAKADSSNDEAVADTSRRVGGALWRKGALRDRLNDAVKQLQAAERGDAHQRLGQSKLFIEEANKTTAAVQQVTTPMANNLSNWSQNLQTFDSSAYNTAVDSARDAVRNLTEVVPQLLDQLRTVEQKRPASNISASIQRIRELIAQTRSVASKIQVSMMFDGQSAVEVHPK
notes: two residues (GlySer) left from the protease recognition site after thrombin cleavage; laminin α4 chain, mouse, C-terminal coiled-coil fragment, residues 616-842 of the native chain (227 residues); source: E. coli JM109(DE3), purified (Ni2+-Sepharose, denaturing, 8 M urea), 6xHis tag removed by thrombin; not shown: 6xHis, N-terminal, cleaved; pPEP-T leader (short C-terminal fragment of the …)
For B3, the binding result in assay [4], in assay [5], in assay [6] and in assay [7] was “binds” in each case.
